Targets include HLA-DR4 (human); HLA-DR1 (human); HLA-DR2 (human); HLA-DR5 (human); HLA-DR7 (human).
What all share (experiment): REVEAL MHC-peptide binding assay

On to TFSYVDPVITSISPKYG (peptide, from a related filing) [MET-005], for which the Relative Binding Score (% compared to the positive control) in the experiment with HLA-DR4 (human) was 5.89; with HLA-DR1 (human), 0.87; in the experiment with HLA-DR2 (human) it was 0.28; with HLA-DR5 (human), 0.12; with HLA-DR7 (human), 3.69.
As for TLGEFLKLDRERAKN (peptide, from a related filing) [BIR-002], the Relative Binding Score (% compared to the positive control) turned out to be 6.12 in the experiment with HLA-DR4 (human); 40.1 with HLA-DR1 (human); 0.05 with HLA-DR2 (human); 104 with HLA-DR5 (human); 0.27 in the experiment with HLA-DR7 (human).
